{"source": "the supplement of paper PMC12042874", "note": "± gives the uncertainty stated by the source.", "data": [{"assay": "amyloid nucleation score (Sup35N fusion, yeast selection) (log enrichment); library NNK2; higher = more nucleation; inactive = no reads after selection", "in_short": "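The nucleation score is the log enrichment of output over input reads, calculated with DiMSum and centred on the mode score of non-aggregating sequences. Sequences with under 100 input reads were excluded. Reads came from Illumina sequencing of plasmid inserts from psi-negative yeast expressing Sup35N fused to peptides of 20 random codons, induced 24 hours with 100 μM copper sulfate and grown 7 days at 30°C without adenine and uracil.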", "values": [{"substance": "RTVDELTRRWWSKRRMGMSW", "amyloid nucleation score": "2.03 ± 0.25"}, {"substance": "VKGHKRESSWNWRSDGNMWA", "amyloid nucleation score": "-0.111 ± 0.61"}, {"substance": "NTRNDWQS", "amyloid nucleation score": "2.13 ± 0.15"}, {"substance": "DMSNQFYELVAMILMNST", "amyloid nucleation score": "-0.823 ± 0.32"}, {"substance": "FMGVKRVVTRVVCLQIGQPT", "amyloid nucleation score": "7.11 ± 0.071"}, {"substance": "GSSVDNACQSDLPVQVSMKF", "amyloid nucleation score": "-0.478 ± 0.64"}, {"substance": "WWKGWARTNNVMRAFVVMFY", "amyloid nucleation score": "-0.655 ± 0.44"}, {"substance": "FGMYPVVGCLDRLYWMRLYA", "amyloid nucleation score": "0.539 ± 0.81"}, {"substance": "SRLTS", "amyloid nucleation score": "2.32 ± 0.066"}, {"substance": "TASPSILTSKVTRYNLTVGC", "amyloid nucleation score": "-0.072 ± 0.5"}, {"substance": "SSRCFSVYSDIMYGTFLS", "amyloid nucleation score": "inactive"}, {"substance": "LLDMYNYTGIF", "amyloid nucleation score": "inactive"}, {"substance": "FRFPFFVQWFFCLSGSQRAR", "amyloid nucleation score": "inactive"}, {"substance": "QILSRGFAPWT", "amyloid nucleation score": "-1.54 ± 0.78"}, {"substance": "NSRTGTLREVHYLPDST", "amyloid nucleation score": "5.1 ± 0.054"}, {"substance": "IFSISLLMAQYIGVWFFRRV", "amyloid nucleation score": "inactive"}, {"substance": "WPFPKSRNRS", "amyloid nucleation score": "-0.076 ± 0.79"}, {"substance": "FQCNCTLSQIAWNKSQGQSS", "amyloid nucleation score": "-0.363 ± 1.1"}, {"substance": "TFGESSIVNNPYFLHESGHS", "amyloid nucleation score": "0.813 ± 0.48"}, {"substance": "MTIDCFTFRDQGVYGTLMLK", "amyloid nucleation score": "3.33 ± 0.043"}, {"substance": "RKRRLMYLSGDNTQPFARLY", "amyloid nucleation score": "-0.686 ± 1.1"}, {"substance": "GMYNLSSGYRCERVGVAENI", "amyloid nucleation score": "-0.513 ± 0.3"}, {"substance": "NLASRALIKLFH", "amyloid nucleation score": "-0.538 ± 0.48"}, {"substance": "VKQYYGSESNNGITFILRIA", "amyloid nucleation score": "0.177 ± 0.38"}, {"substance": "INWCYAPRLYFNHRWWDYCG", "amyloid nucleation score": "6.586 ± 0.054"}, {"substance": "LGSWR", "amyloid nucleation score": "-0.829 ± 1.1"}, {"substance": "GGLPGRVVEATCWYPVINVR", "amyloid nucleation score": "0.889 ± 0.47"}, {"substance": "HVDIRLWTFNRSRFIGVFGV", "amyloid nucleation score": "2.75 ± 0.079"}, {"substance": "LVYCSLLNLILWMSAYI", "amyloid nucleation score": "-0.518 ± 0.45"}, {"substance": "ANLFVCMDDM", "amyloid nucleation score": "-0.051 ± 0.23"}, {"substance": "MNFESNFRNTKCEIFIVIYN", "amyloid nucleation score": "4.62 ± 0.11"}, {"substance": "PCGLIV", "amyloid nucleation score": "0.22 ± 0.63"}, {"substance": "YEIFGRTNPMMVDKNNAIWV", "amyloid nucleation score": "-0.691 ± 0.42"}, {"substance": "ERNSWISLIQTF", "amyloid nucleation score": "-0.693 ± 0.39"}, {"substance": "HWLRSGWELNVRVLGPQATF", "amyloid nucleation score": "0.982 ± 0.34"}, {"substance": "ECMAWGIFCGGSSGIFCLNQ", "amyloid nucleation score": "inactive"}, {"substance": "RSCYVYRN", "amyloid nucleation score": "inactive"}, {"substance": "EEREFSAASPEAMELR", "amyloid nucleation score": "inactive"}, {"substance": "FRRYYLLFVPAFCVPLKCQY", "amyloid nucleation score": "0.53 ± 0.66"}, {"substance": "FCGQKTNFNCLDETLLIR", "amyloid nucleation score": "1.09 ± 0.59"}, {"substance": "FLMSTSLRSCICCVLLPSDN", "amyloid nucleation score": "8.908 ± 0.032"}, {"substance": "WAGRDHFWNIIYLDLSFVGE", "amyloid nucleation score": "3.77 ± 0.12"}, {"substance": "YMNSSLARISPRGSRCERQ", "amyloid nucleation score": "0.162 ± 0.38"}, {"substance": "ASYQRSCILRRFTFVSCILI", "amyloid nucleation score": "1.56 ± 0.17"}, {"substance": "SFELFCVWGR", "amyloid nucleation score": "-0.827 ± 0.54"}, {"substance": "AGRLLGNVGNWRANEGAGGD", "amyloid nucleation score": "-0.833 ± 1.1"}, {"substance": "IGLKYSLWVVGFEVRLRCAD", "amyloid nucleation score": "3.86 ± 0.07"}, {"substance": "FFMGGMRASNMDYATSWLK", "amyloid nucleation score": "4.3 ± 0.099"}, {"substance": "VTQRWLAFERWKLPCSLPSH", "amyloid nucleation score": "0.02 ± 0.79"}, {"substance": "IHWGLIIGSCRF", "amyloid nucleation score": "1.56 ± 0.27"}, {"substance": "TSIMPDSFFRSLKVSF", "amyloid nucleation score": "-0.249 ± 0.56"}, {"substance": "LGYIWLALRIVNCLDNGVPY", "amyloid nucleation score": "-1 ± 0.44"}, {"substance": "CRINFTFDELVVVSQILTWL", "amyloid nucleation score": "4.07 ± 0.058"}, {"substance": "RNSPVSLDVVSI", "amyloid nucleation score": "0.046 ± 0.49"}, {"substance": "FSYMWAHTGSFPRRQVIITI", "amyloid nucleation score": "-0.596 ± 0.55"}, {"substance": "LLMLVSFLIDDEAFSVFDLL", "amyloid nucleation score": "0.672 ± 0.39"}, {"substance": "NKVSEFYDGVHFC", "amyloid nucleation score": "-0.235 ± 1.1"}, {"substance": "KVMVRLGSNSAAKYFYVNRV", "amyloid nucleation score": "3.84 ± 0.057"}, {"substance": "VTCNPHGLSHD", "amyloid nucleation score": "inactive"}, {"substance": "VESMILSRYLHHILRGNSLC", "amyloid nucleation score": "-1.15 ± 1.1"}, {"substance": "ARCNCL", "amyloid nucleation score": "0.559 ± 0.49"}, {"substance": "NTSMNCRKVMYDMNIYNLSK", "amyloid nucleation score": "3.49 ± 0.11"}, {"substance": "MTSFGYHMNLCH", "amyloid nucleation score": "0.072 ± 1.1"}, {"substance": "LLHYGGSFLAAKFRRMGFTM", "amyloid nucleation score": "-0.262 ± 0.56"}, {"substance": "IISPVGVRMAYL", "amyloid nucleation score": "0.176 ± 0.37"}, {"substance": "LKTQWQSPWVQMV", "amyloid nucleation score": "-0.09 ± 0.48"}, {"substance": "TITHLSNACTYMVDIRSFTF", "amyloid nucleation score": "5.38 ± 0.068"}, {"substance": "YIKWQI", "amyloid nucleation score": "2.94 ± 0.065"}, {"substance": "TVFKYLTFLGSIVFSTVPLV", "amyloid nucleation score": "0.088 ± 0.56"}, {"substance": "FKNAWFLATFNPTT", "amyloid nucleation score": "-0.104 ± 0.23"}, {"substance": "TWVGWS", "amyloid nucleation score": "-0.841 ± 0.79"}, {"substance": "HWRFFCMDHNFILSVKDVVA", "amyloid nucleation score": "inactive"}, {"substance": "IHSNEDFVRSESGVLDAYSV", "amyloid nucleation score": "-0.627 ± 0.42"}, {"substance": "QNTMALKHNICPEHSSMWNS", "amyloid nucleation score": "2.64 ± 0.066"}, {"substance": "RRRPRGLEGFAERGLGDWTY", "amyloid nucleation score": "1.36 ± 0.44"}, {"substance": "ILQVPRTFFIRSHRSSVHL", "amyloid nucleation score": "inactive"}, {"substance": "SQISYEWDATIHQWLCKWFW", "amyloid nucleation score": "8.355 ± 0.031"}, {"substance": "VLRMRGCW", "amyloid nucleation score": "6.738 ± 0.049"}, {"substance": "LEDGRTSLGMTQRYSIRNIC", "amyloid nucleation score": "-1.11 ± 0.55"}, {"substance": "SVCVRT", "amyloid nucleation score": "inactive"}, {"substance": "WHTYSRCSFRKRAGSLVAFP", "amyloid nucleation score": "0.365 ± 0.28"}, {"substance": "IMHCVHKSRILSSVTKIKEP", "amyloid nucleation score": "inactive"}, {"substance": "FWLGSVVGNSCAWVITWAIL", "amyloid nucleation score": "-0.036 ± 0.44"}, {"substance": "VYMCFSPVVNIMTVISFLAR", "amyloid nucleation score": "5.23 ± 0.093"}, {"substance": "AYSIFVFYTYVTTHLRHITR", "amyloid nucleation score": "inactive"}, {"substance": "YSRGIWCNLDGHERCVSLST", "amyloid nucleation score": "-0.266 ± 1.1"}, {"substance": "IQPPQFFAFI", "amyloid nucleation score": "inactive"}, {"substance": "HCCHRFYMDSEIACTCFTTM", "amyloid nucleation score": "-0.523 ± 0.56"}, {"substance": "PMFYGCGPKLCDYYMNVLFV", "amyloid nucleation score": "2.85 ± 0.12"}, {"substance": "SGVAPVIMYCAIVCGGLHM", "amyloid nucleation score": "8.517 ± 0.067"}, {"substance": "DIFIGNSVCGVYRMVNMYSY", "amyloid nucleation score": "inactive"}, {"substance": "NMRRYLIDMKGVEVLGFMCS", "amyloid nucleation score": "inactive"}, {"substance": "FRLSHFILVSHYLNNYEDSF", "amyloid nucleation score": "inactive"}, {"substance": "LTYACSWYQKSQFGSCLNEW", "amyloid nucleation score": "0.449 ± 0.26"}, {"substance": "NGVCQNCR", "amyloid nucleation score": "inactive"}, {"substance": "SYGLRSC", "amyloid nucleation score": "0.174 ± 0.63"}, {"substance": "IHRGWSWMQSRILDVGSR", "amyloid nucleation score": "0.162 ± 0.54"}, {"substance": "LNFGMY", "amyloid nucleation score": "-0.772 ± 0.78"}, {"substance": "LQVIHGSPRLRLYDYQRNNF", "amyloid nucleation score": "7.482 ± 0.04"}, {"substance": "VSRAFNFSRCRRKISPALQC", "amyloid nucleation score": "0.135 ± 0.33"}, {"substance": "YSYILSFSSFFYFLRHCIKY", "amyloid nucleation score": "inactive"}, {"substance": "TWMGVHVRSYHQHC", "amyloid nucleation score": "0.878 ± 0.42"}, {"substance": "TGRGAHFHRI", "amyloid nucleation score": "-0.24 ± 0.42"}, {"substance": "VDCGFRRLFVFTNSIYCVCR", "amyloid nucleation score": "5.321 ± 0.053"}, {"substance": "GRPVMMEMPII", "amyloid nucleation score": "0.512 ± 0.42"}, {"substance": "CIFYKVGLFFPCWYIVSVLS", "amyloid nucleation score": "-2.03 ± 0.75"}, {"substance": "SSLGIRNCVGTSYVMSPIIV", "amyloid nucleation score": "0.178 ± 0.53"}, {"substance": "LTSGNSMIVVS", "amyloid nucleation score": "0.15 ± 0.18"}, {"substance": "CLPETLVDFWFKAHDAFNFV", "amyloid nucleation score": "inactive"}, {"substance": "NNATLGQAFSRQ", "amyloid nucleation score": "0.542 ± 0.17"}, {"substance": "WTGGFSLQSVHCNQN", "amyloid nucleation score": "-0.393 ± 1.1"}, {"substance": "IRWNDSYKKECHIFFWRNRE", "amyloid nucleation score": "inactive"}, {"substance": "EFIDLVD", "amyloid nucleation score": "inactive"}, {"substance": "HDVFVTYTTLLITARLMRRP", "amyloid nucleation score": "1.86 ± 0.27"}, {"substance": "WERMFRPHIFVLFSSGQLSS", "amyloid nucleation score": "5.01 ± 0.052"}, {"substance": "GILMISDAYDIREYFKLVTF", "amyloid nucleation score": "-1.32 ± 0.62"}, {"substance": "SVCELKW", "amyloid nucleation score": "0.53 ± 0.38"}, {"substance": "RDSFRDTAYHELVYFTKNFR", "amyloid nucleation score": "inactive"}, {"substance": "WIMSVGTAKWRDGQPSACRK", "amyloid nucleation score": "3.46 ± 0.13"}, {"substance": "KTIPSGVVGWVSEGQRSTNR", "amyloid nucleation score": "7.87 ± 0.08"}, {"substance": "WYVDSLLWEILSALECCVFM", "amyloid nucleation score": "inactive"}, {"substance": "VGEYLCEPATLY", "amyloid nucleation score": "-0.018 ± 1.1"}, {"substance": "IAFFGLCMSRVSLGVLEMRL", "amyloid nucleation score": "2.21 ± 0.18"}, {"substance": "CGKCWCEVD", "amyloid nucleation score": "0.359 ± 0.37"}, {"substance": "QPCLHAMV", "amyloid nucleation score": "0.319 ± 0.56"}, {"substance": "RTCDDA", "amyloid nucleation score": "0.294 ± 0.8"}]}]}
